For data set [1], the target named is internally quenched peptide probe with CM 7041 (PWGL, SEQ ID NO: 100).
The target of data set [2] is internally quenched peptide probe with CM 7047 (PYGL, SEQ ID NO: 103).
The target of data set [3] is internally quenched peptide probe with CM 7049 (PFGL, SEQ ID NO: 104).
Data set [4] deals with internally quenched peptide probe with CM 7050 (PRGL, SEQ ID NO: 105).
Data set [5] deals with internally quenched peptide probe with CM 7051 (PMGL, SEQ ID NO: 106).
Data set [6] has as its target internally quenched peptide probe with CM 7052 (PLGL, SEQ ID NO: 107).
In data set [7] the target is internally quenched peptide probe with CM 7053 (PQGL, SEQ ID NO: 9).
The target in data set [8] is internally quenched peptide probe with CM 7054 (PKGL, SEQ ID NO: 108).
Data set [9] has as its target internally quenched peptide probe with CM 7055 (PHGL, SEQ ID NO: 10).
Data set [10] deals with internally quenched peptide probe with CM 7056 (PEGL, SEQ ID NO: 11).
In data set [11] the target is internally quenched peptide probe with CM APMGLKH (SEQ ID NO: 7).
Data set [12] concerns the target internally quenched peptide probe with CM PMGLK (SEQ ID NO: 64).
Data set [13] addresses internally quenched peptide probe with CM PMGLKS (SEQ ID NO: 5).
Data set [14] concerns the target internally quenched peptide probe with CM PWGLRS (SEQ ID NO: 181).
In data set [15] the target is internally quenched peptide probe with CM RSPWGL (SEQ ID NO: 182).

B1: human recombinant MMP2 (R&D Systems, catalog No: 902-MP) (protein)
chain: YNFFPRKPKWDKNQITYRIIGYTPDLDPETVDDAFARAFQVWSDVTPLRFSRIHDGEADIMINFGRWEHGDGYPFDGKDGLLAHAFAPGTGVGGDSHFDDDELWTLGEGQVVRVKYGNADGEYCKFPFLFNGKEYNSCTDTGRSDGFLWCSTTYNFEKDGKYGFCPHEALFTMGGNAEGQPCKFPFRFQGTSYDSCTTEGRTDGYRWCGTTEDYDRDKKYGFCPETAMSTVGGNSEGAPCVFPFTFLGNKYESCTSAGRSDGKMWCATTANYDDDRKWGFCPDQGYSLFLVAAHEFGHAMGLEHSQDPGALMAPIYTYTKNFRLSQDDIKGIQELYGASPDIDLGTGPTPTLGPVTPEICKQDIVFDGIAQIRGEIFFFKDRFIWRTVTPRDKPMGPLLVATFWPELPEKIDAVYEAPQEEKAVFFAGNEYWIYSASTLERGYPKPLTSLGLPPDVQRVDAAFNWSKNKKTYIFAGDKFWRYNEVKKKMDPGFPKLIADAWNAIPDNLDAVVDLQGGGHSYFFKGAYYLKLENQSLKSVKFGSIKSDWLGC
In the case of B1, the “stated: cleaved (kcat/Km, M-1s-1, bar on a log axis)” value is “PWGL, MMP2 bar ends between 1x10^3 and 1x10^4” in [1]; “PYGL, MMP2 bar ends between 1x10^3 and 1x10^4” in data set [2]; “PFGL, MMP2 bar ends between 1x10^3 and 1x10^4” in data set [3]; “PRGL, MMP2 bar ends between 1x10^4 and 1x10^5; the highest MMP2 bar of the ten peptide probes” in data set [4]; “PMGL, MMP2 bar ends between 1x10^4 and 1x10^5” in [5]; “PLGL, MMP2 bar ends between 1x10^4 and 1x10^5” in data set [6]. Also, the “stated: cleaved (kcat/Km, M-1s-1, bar on a log axis)” value in data set [7] is “PQGL, MMP2 bar ends between 1x10^4 and 1x10^5”; in [8], “PKGL, MMP2 bar ends between 1x10^4 and 1x10^5”; in data set [9] it was “PHGL, MMP2 bar ends just above the 1x10^4 tick”; in [10] it was “PEGL, MMP2 bar ends between 1x10^3 and 1x10^4”. Moreover, the “kcat/KM (M^-1 s^-1)” value in data set [2], in [3] and in data set [10] was “greater than 5×10^2 M^-1 s^-1” each time. Besides, the Probe Cleavage (kcat/KM) in data set [11] turned out to be 2.7e+06 M⁻¹ s⁻¹; in data set [12], 180000 M⁻¹ s⁻¹; in data set [13], 8.5e+06 M⁻¹ s⁻¹; in data set [14], 140000 M⁻¹ s⁻¹; in data set [15], 260000 M⁻¹ s⁻¹. Besides, the Probe Cleavage (pM/s) in data set [11] came out at 81700 pM/s; in [12], 4690 pM/s; in data set [13], 119000 pM/s; in data set [14], 3800 pM/s; in [15] it was 11700 pM/s.

B2: human recombinant MT-SP1 (R&D Systems, catalog No: 3946-SEB) (protein)
chain: VVGGTDADEGEWPWQVSLHALGQGHICGASLISPNWLVSAAHCYIDDRGFRYSDPTQWTAFLGLHDQSQRSAPGVQERRLKRIISHPFFNDFTFDYDIALLELEKPAEYSSMVRPICLPDASHVFPAGKAIWVTGWGHTQYGGTGALILQKGEIRVINQTTCENLLPQQITPRMMCVGFLSGGVDSCQGDSGGPLSSVEADGRIFQAGVVSWGDGCAQRNKPGVYTRLPLFRDWIKENTGV
As to B2, the Probe Cleavage (kcat/KM) in data set [11] worked out at 77000 M⁻¹ s⁻¹; in data set [12], 1600 M⁻¹ s⁻¹; in [13], 320000 M⁻¹ s⁻¹; in data set [14], 31000 M⁻¹ s⁻¹; in [15], 48000 M⁻¹ s⁻¹. For the same protein, the Probe Cleavage (pM/s) in data set [11] was determined as 3330 pM/s; in [12] it was 46.1 pM/s; in [13], 14100 pM/s; in [14] it was 1230 pM/s; in data set [15], 2390 pM/s.

(Values after US20260042849.)
